In patent US20220193237A1 (Bristol-Myers Squibb, published 2022):

What was measured:
[1] = target: T1, human CTLA-4 on 58 α-β-CTLA-4/CD3 ζ cells (human; mouse (mCD3ζ)); test: cell-based or functional assay
[2] = target: T1, human CTLA-4 on 58 α-β-CTLA-4/CD3 ζ …; test: flow cytometry, non-fucosylated IgG1 on 58αβ-CTLA4/mCD3ζ cells, pH 6.7
Protocol: (§1) Antibodies were titrated from 100 μg/mL at a 1:4 dilution across 12 points in pH-specific buffers and incubated for 30-60 minutes. Buffers contained HBSS, 2% FBS^HI, 0.02% sodium azide, 2 mM EDTA, and sodium phosphate buffer (pH 5.4). Sodium phosphate buffer was added until desired pH was reached (7.2, 6.7, 6.2). Approximately 3e5 cells/well were tested for each cell line. […] Detection was done with a monovalent anti-hKappa secondary nanobody conjugated to Alexa647 and used at a dilution of 1:2000. Cells were fixed with BD Fix Solution I for 30 minutes prior to resuspension in pH-specific buffers and reading on the cytometer (BD Fortessa).

[3] = target: T1, human CTLA-4 on 58 α-β-CTLA-4/CD3 ζ …; test: cell-based or functional assay; remark: listed apart in the source
[4] = target: T1, human CTLA-4 on 58 α-β-CTLA-4/CD3 ζ …; test: cell-based or functional assay; remark: listed apart in the source
[5] = target: T1, human CTLA-4 on 58 α-β-CTLA-4/CD3 ζ …; test: flow cytometry, non-fucosylated IgG1 on 58αβ-CTLA4/mCD3ζ cells, pH 7.2
Protocol: as §1

[6] = target: T1, human CTLA-4 on 58 α-β-CTLA-4/CD3 ζ …; test: flow cytometry, non-fucosylated IgG1 on 58αβ-CTLA4/mCD3ζ cells, pH 6.2
Protocol: as §1

[7] = target: T2, monomeric human CTLA-4 (human, UniProt P16410 36-161, limits assumed); test: SPR, captured Fab, pH 6.0 vs 7.4
T2 construct: Soluble monomeric analyte in SPR; also called huCTLA-4
T2 sequence: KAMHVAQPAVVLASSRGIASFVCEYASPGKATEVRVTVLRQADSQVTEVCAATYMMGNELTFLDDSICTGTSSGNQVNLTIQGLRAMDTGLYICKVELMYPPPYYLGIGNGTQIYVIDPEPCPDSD
Protocol: (§2) Binding of selected variants to human CTLA-4 was determined essentially as described in Example 3. […] Nomenclature and sequences for these antibodies is provided at Tables 6 and 7, and in the sequence listing as summarized at Table 8.
(§3) Monomeric human CTLA-4 was flowed as analyte with up to 2 μM top concentration. Between cycles, the capture surface was regenerated with 75 mM phosphoric acid. Experiments were run on a BIACORE® T200 instrument at 37° C. Running buffers were HEPES buffered saline for pH 7.4 experiments and Bis-Tris buffered saline for lower pH experiments. […] Double referenced sensorgrams were fitted to a 1:1 Langmuir binding model with mass transport to determine equilibrium dissociation constants (KD), as well as association (kₐ) and dissociation (kd) rate constants where appropriate.

[8] = target: T2, monomeric human CTLA-4; test: SPR, pH 6.0 and pH 7.5 (FIG. 6)
Protocol: (§4) Unless otherwise indicated, experiments were performed with a BIACORE® SPR surface plasmon resonance spectrometer (Biacore AB, Uppsala, Sweden). Antibodies were tested as monovalent Fab fragments to simplify analysis.
as §3

[9] = target: T2, monomeric human CTLA-4; test: SPR, captured Fab, pH 6.0
Protocol: as §2, §3

[10] = target: T2, monomeric human CTLA-4; test: SPR, captured Fab, pH 7.4
Protocol: as §2, §3

[11] = target: T2, monomeric human CTLA-4; test: SPR, captured Fab, pH 6.0 vs 7.4; remark: listed apart in the source
Protocol: (§5) See Example 3. Antibodies were tested as monovalent Fab fragments to simplify analysis.
as §3

[12] = target: T2, monomeric human CTLA-4; test: SPR, captured Fab, pH 7.4, second experiment
Protocol: as §5, §3

[13] = target: T2, monomeric human CTLA-4; test: SPR, captured Fab, second experiment of Table 3
Protocol: as §5, §3

[14] = target: T2, monomeric human CTLA-4; test: SPR, captured Fab, first experiment of Table 3
Protocol: as §5, §3

[15] = target: T2, monomeric human CTLA-4; test: SPR, captured Fab, pH 7.4; remark: listed apart in the source
Protocol: as §5, §3

[16] = target: T2, monomeric human CTLA-4; test: SPR, captured Fab, pH 6.0; remark: listed apart in the source
Protocol: as §5, §3

[17] = target: T2, monomeric human CTLA-4; test: SPR, captured Fab, pH 6.0, second experiment
Protocol: as §5, §3

[18] = target: T2, monomeric human CTLA-4; test: SPR, captured Fab, pH 6.0 vs 7.4, second experiment
Protocol: as §5, §3

[19] = target: T2, monomeric human CTLA-4; test: SPR, captured Fab, pH 6.0; remark: listed apart in the source
Protocol: as §4, §3

[20] = target: T2, monomeric human CTLA-4; test: SPR, captured Fab, pH 6.0 vs 7.4; remark: listed apart in the source
Protocol: as §4, §3

[21] = target: T2, monomeric human CTLA-4; test: SPR, captured Fab, pH 7.4; remark: listed apart in the source
Protocol: as §4, §3

B1: ipi.100, non-fucosylated IgG1 (antibody, V domains shown)
VH: QVQLVESGGGVVQPGRSLRLSCAASGFTFSHYTMHWVRQAPGKGLEWVTFISYDGNNKYYADSVKGRFTISRDNSKNTLYLQMNSLRAEDTAIYYCARTGWLGPFDYWGQGTLVTVSS
VL: not shown
modifications: non-fucosylated N-linked glycan
notes: Non-fucosylated full-length human IgG1; also called Ipi.100 IgG1-NF
IC50 (read off the curve), mIL-2 secretion, 58αβ-hCTLA/mCD3ζ:rhB7-1 blocking assay, 18 h, pH 7.0 [1]: ~1 nM | Cmax (MFI) [2]: 126000 MFI | EC50 [2]: 2.85 nM | IC50 (read off the curve), mIL-2 secretion, 58αβ-hCTLA/mCD3ζ:rhB7-1 blocking assay, 18 h, pH 7.2 [3]: ~1 nM | IC50 (read off the curve), mIL-2 secretion, 58αβ-hCTLA/mCD3ζ:rhB7-1 blocking assay, 18 h, pH 6.8 [4]: ~1 nM | Cmax (MFI) [5]: 125000 MFI | EC50 [5]: 2.8 nM | Cmax (MFI) [6]: 122000 MFI | EC50 [6]: 2.94 nM

B2: ipi.57 Fab (Fab, V domains shown)
VH: QVQLVESGGGVVQPGRSLRLSCAASGFTFSHYTMHWVRQAPGKGLEWVTFISYDGNNKYYADSVKGRFTISRDNSKNTLYLQMNSLRAEDTAIYYCARTGWLGPFDYWGQGTLVTVSS
VL: not shown
notes: Tested as monovalent Fab; also called HCDR1 S31H
KD 7.4/6 (APBP) [7]: 3.5 | ka 6/7.4 [7]: 1.3 | t1/2 6/7.4 [7]: 2.7 | CAPBP (ratio of KD normalized to ipilimumab) [8]: 5.5 | Kd [9]: 7.9 nM | kon [9]: 1.1e+06 M⁻¹ s⁻¹ | t1/2 [9]: 1.38 min | Kd [10]: 28 nM | kon [10]: 800000 M⁻¹ s⁻¹ | t1/2 [10]: 0.533 min

B3: ipi.25 Fab (Fab, V domains shown)
VH: QVQLVESGGGVVQPGRSLRLSCAASGFTFSSYTMHWVRQAPGKGLEWVTFISYDGNNKYYADSVKGRFTISRDNSKNTLYLQMNSLRAEDTAIYYCARTGWLGPFDYWGQGTLVTVSS
VL: not shown
notes: Tested as monovalent Fab; also called LCDR1 S28E/S31D; LCDR1 S27aE/S30D (Kabat)
KD 7.4/6 (APBP) [11]: 4 | ka 6/7.4 [11]: 1.7 | kd 7.4/6 [11]: 2.3 | Kd [12]: 37 nM | koff [12]: 0.017 s⁻¹ | kon [12]: 460000 M⁻¹ s⁻¹ | KD 7.4/6 (APBP) [7]: 4.1 | ka 6/7.4 [7]: 1.7 | t1/2 6/7.4 [7]: 2.4 | ratio of KD (7.4/6.0) normalized to the ratio of ipilimumab [13]: 6.3 | ratio of KD (7.4/6.0) normalized to the ratio of ipilimumab [14]: 4 | CAPBP (ratio of KD normalized to ipilimumab) [8]: 6.3 | Kd [9]: 6.2 nM | kon [9]: 1.2e+06 M⁻¹ s⁻¹ | t1/2 [9]: 1.5 min | Kd [10]: 25 nM | kon [10]: 720000 M⁻¹ s⁻¹ | t1/2 [10]: 0.65 min | Kd [15]: 25 nM | koff [15]: 0.018 s⁻¹ | kon [15]: 720000 M⁻¹ s⁻¹ | Kd [16]: 6.2 nM | koff [16]: 0.0077 s⁻¹ | kon [16]: 1.2e+06 M⁻¹ s⁻¹ | Kd [17]: 7.4 nM | koff [17]: 0.0074 s⁻¹ | kon [17]: 1e+06 M⁻¹ s⁻¹ | KD 7.4/6 (APBP) [18]: 5 | ka 6/7.4 [18]: 2.2 | kd 7.4/6 [18]: 2.3

B4: ipi.18 Fab (Fab, V domains shown)
VH: QVQLVESGGGVVQPGRSLRLSCAASGFTFSSYTMHWVRQAPGKGLEWVTFISYDGNNKYYADSVKGRFTISRDNSKNTLYLQMNSLRAEDTAIYYCARTGWLGPFDYWGQGTLVTVSS
VL: not shown
notes: Tested as monovalent Fab; also called S31D
KD 7.4/6 (APBP) [11]: 3.2 | ka 6/7.4 [11]: 1.7 | kd 7.4/6 [11]: 1.9 | KD 7.4/6 (APBP) [7]: 3.1 | ka 6/7.4 [7]: 1.7 | t1/2 6/7.4 [7]: 1.9 | ratio of KD (7.4/6.0) normalized to the ratio of ipilimumab [14]: 3.2 | Kd [9]: 8.8 nM | kon [9]: 1.1e+06 M⁻¹ s⁻¹ | t1/2 [9]: 1.25 min | Kd [10]: 28 nM | kon [10]: 640000 M⁻¹ s⁻¹ | t1/2 [10]: 0.65 min | Kd [15]: 28 nM | koff [15]: 0.018 s⁻¹ | kon [15]: 640000 M⁻¹ s⁻¹ | Kd [16]: 8.8 nM | koff [16]: 0.0093 s⁻¹ | kon [16]: 1.1e+06 M⁻¹ s⁻¹

B5: ipi.1 Fab (Fab, V domains shown)
VH: QVQLVESGGGVVQPGRSLRLSCAASGFTFSSYHMHWVRQAPGKGLEWVTFISYDGNNKYYADSVKGRFTISRDNSKNTLYLQMNSLRAEDTAIYYCARTGWLGPFDYWGQGTLVTVSS
VL: not shown
notes: Tested as monovalent Fab; also called T33H (Kabat)
Kd [19]: 20 nM | koff [19]: 0.011 s⁻¹ | kon [19]: 560000 M⁻¹ s⁻¹ | KD 7.4/6 (APBP) [7]: 1.1 | ka 6/7.4 [7]: 1.1 | t1/2 6/7.4 [7]: 1 | KD 7.4/6 (APBP) [20]: 1.2 | Kd [21]: 17 nM | koff [21]: 0.011 s⁻¹ | kon [21]: 650000 M⁻¹ s⁻¹ | Kd [9]: 7.7 nM | kon [9]: 960000 M⁻¹ s⁻¹ | t1/2 [9]: 1.57 min | Kd [10]: 8.6 nM | kon [10]: 840000 M⁻¹ s⁻¹ | t1/2 [10]: 1.6 min

B6: ipi.2 Fab (Fab, V domains shown)
VH: QVQLVESGGGVVQPGRSLRLSCAASGFTFSSYTMHWVRQAPGKGLEWVTFISYDGNHKYYADSVKGRFTISRDNSKNTLYLQMNSLRAEDTAIYYCARTGWLGPFDYWGQGTLVTVSS
VL: not shown
notes: Tested as monovalent Fab; also called N56H (Kabat)
Kd [19]: 13 nM | koff [19]: 0.0065 s⁻¹ | kon [19]: 490000 M⁻¹ s⁻¹ | KD 7.4/6 (APBP) [7]: 0.9 | ka 6/7.4 [7]: 1.4 | t1/2 6/7.4 [7]: 0.6 | KD 7.4/6 (APBP) [20]: 0.8 | Kd [21]: 16 nM | koff [21]: 0.011 s⁻¹ | kon [21]: 670000 M⁻¹ s⁻¹ | Kd [9]: 6.8 nM | kon [9]: 1.2e+06 M⁻¹ s⁻¹ | t1/2 [9]: 1.38 min | Kd [10]: 5.8 nM | kon [10]: 880000 M⁻¹ s⁻¹ | t1/2 [10]: 2.27 min
